The target in this experiment is protein sHIP (streptococcal Histidine-rich glycoprotein Interacting Protein), sHIPwt (S. pyogenes). As to the kind of experiment: AUC; sedimentation velocity, 20°C, 50000 rpm, 20 mM MES pH 5.5; c(S) distribution compared with theoretical sedimentation coefficients (HYDROPRO).

In the case of “protein sHIP (streptococcal Histidine-rich glycoprotein Interacting Protein), sHIPwt (natural protein)”, the stoichiometry N was 4.
